tested on: Escherichia coli TOP10; test: shrunken log2 fold change of peptide-encoding DNA abundance (4.5 h post-induction vs induction); higher = less antimicrobial activity (less host growth inhibition); details: time post-induction: 4.5 h; library: site-saturation at positions 5, 18, 19, 20
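Also: peptides expressed intracellularly from a pBAD plasmid library in pooled LB shake-flask culture, induced with 0.3% L-arabinose, DNA abundance read by NGS, three biological replicates, DESeq2 with apeglm shrinkage.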

Row | Sequence | shrunken log2 fold change
1 | RRIRRRPPRLPRPRPRPKTAPRP | 0.707
2 | RRIRMRPPRLPRPRPRPDGTPRP | 2.88
3 | RRIRNRPPRLPRPRPRPVWRPRP | 0.636
4 | RRIRFRPPRLPRPRPRPNHIPRP | -0.937
5 | RRIRQRPPRLPRPRPRPPDYPRP | 0.00906
6 | RRIRMRPPRLPRPRPRPVLPPRP | -0.0643
7 | RRIRHRPPRLPRPRPRPMVSPRP | -0.00841
8 | RRIRCRPPRLPRPRPRPLGMPRP | -0.433
9 | RRIRDRPPRLPRPRPRPQELPRP | -0.238
10 | RRIRTRPPRLPRPRPRPEHEPRP | -0.109
11 | RRIRSRPPRLPRPRPRPWCGPRP | 0.0715
12 | RRIRSRPPRLPRPRPRPVTCPRP | -0.299
13 | RRIRQRPPRLPRPRPRPYAVPRP | -0.00389
14 | RRIRVRPPRLPRPRPRPNFLPRP | -0.0134
15 | RRIRCRPPRLPRPRPRPMHKPRP | -0.203
16 | RRIRDRPPRLPRPRPRPVQHPRP | -0.012
17 | RRIRGRPPRLPRPRPRPIFNPRP | 0.051
18 | RRIRIRPPRLPRPRPRPVGRPRP | 0.0883
19 | RRIRNRPPRLPRPRPRPEEVPRP | -0.00192
20 | RRIRDRPPRLPRPRPRPAYTPRP | -0.00595
21 | RRIRARPPRLPRPRPRPREEPRP | 0.579
22 | RRIRMRPPRLPRPRPRPASAPRP | 1.09
23 | RRIRMRPPRLPRPRPRPPRMPRP | 0.893
24 | RRIRLRPPRLPRPRPRPGWYPRP | 0.354
25 | RRIRYRPPRLPRPRPRPMIMPRP | -0.0957

Row | Sequence | shrunken log2 fold change
26 | RRIRYRPPRLPRPRPRPESCPRP | 0.0195
27 | RRIRDRPPRLPRPRPRPAVCPRP | 1.19
28 | RRIRLRPPRLPRPRPRPTLVPRP | -0.0392
29 | RRIRCRPPRLPRPRPRPCHRPRP | -0.371
30 | RRIRSRPPRLPRPRPRPHWLPRP | -0.614
31 | RRIRPRPPRLPRPRPRPWMFPRP | -0.306
32 | RRIRQRPPRLPRPRPRPFPQPRP | -0.0621
33 | RRIRVRPPRLPRPRPRPEKPPRP | 0.00308
34 | RRIRTRPPRLPRPRPRPNLGPRP | 0.152
35 | RRIRSRPPRLPRPRPRPLKAPRP | -0.234
36 | RRIRRRPPRLPRPRPRPSSLPRP | -0.134
37 | RRIRCRPPRLPRPRPRPRGLPRP | 0.331
38 | RRIRYRPPRLPRPRPRPPPVPRP | 0.61
39 | RRIRERPPRLPRPRPRPKKYPRP | -0.518
40 | RRIRDRPPRLPRPRPRPADSPRP | 0.157
41 | RRIRLRPPRLPRPRPRPECGPRP | 0.372
42 | RRIRRRPPRLPRPRPRPIPEPRP | 0.12
43 | RRIRNRPPRLPRPRPRPYLQPRP | -0.00906
44 | RRIRQRPPRLPRPRPRPFDMPRP | -0.123
45 | RRIRCRPPRLPRPRPRPPREPRP | 1.1
46 | RRIRPRPPRLPRPRPRPDWVPRP | 0.0636
47 | RRIRYRPPRLPRPRPRPCRIPRP | -0.0823
48 | RRIRDRPPRLPRPRPRPWKVPRP | -0.0565
49 | RRIRGRPPRLPRPRPRPVFSPRP | 0.0314
50 | RRIRTRPPRLPRPRPRPCTRPRP | -0.287

Row | Sequence | shrunken log2 fold change
51 | RRIRMRPPRLPRPRPRPNEFPRP | 0.0287
52 | RRIRTRPPRLPRPRPRPPPWPRP | 0.614
53 | RRIRSRPPRLPRPRPRPHPIPRP | -0.214
54 | RRIRNRPPRLPRPRPRPRWMPRP | 0.0606
55 | RRIRWRPPRLPRPRPRPVLMPRP | -0.0411
56 | RRIRERPPRLPRPRPRPDDWPRP | -0.0125
57 | RRIRYRPPRLPRPRPRPDLYPRP | -0.0604
58 | RRIRMRPPRLPRPRPRPTNTPRP | 0.176
59 | RRIRSRPPRLPRPRPRPWSPPRP | -0.1
60 | RRIRTRPPRLPRPRPRPMPQPRP | -0.134
61 | RRIRMRPPRLPRPRPRPFPEPRP | 0.562
62 | RRIRIRPPRLPRPRPRPTLMPRP | -0.0204
63 | RRIRRRPPRLPRPRPRPYTVPRP | -0.325
64 | RRIRSRPPRLPRPRPRPWCDPRP | -0.238
65 | RRIRSRPPRLPRPRPRPNRGPRP | 0.0138
66 | RRIRRRPPRLPRPRPRPEETPRP | 0.244
67 | RRIRFRPPRLPRPRPRPQGYPRP | -0.249
68 | RRIRARPPRLPRPRPRPRWEPRP | 0.431
69 | RRIRIRPPRLPRPRPRPPCLPRP | -0.122
70 | RRIRYRPPRLPRPRPRPYIGPRP | -0.0919
71 | RRIRERPPRLPRPRPRPPDFPRP | 0.00276
72 | RRIRSRPPRLPRPRPRPYHAPRP | -8.39e-05
73 | RRIRFRPPRLPRPRPRPWDSPRP | -0.21
74 | RRIRKRPPRLPRPRPRPKWCPRP | 0.152
75 | RRIRKRPPRLPRPRPRPTGTPRP | 0.563

Row | Sequence | shrunken log2 fold change
76 | RRIRVRPPRLPRPRPRPTSPPRP | 0.0262
77 | RRIRVRPPRLPRPRPRPEGWPRP | 0.762
78 | RRIRIRPPRLPRPRPRPRVCPRP | 0.00058
79 | RRIRWRPPRLPRPRPRPAIKPRP | 0.0964
80 | RRIRIRPPRLPRPRPRPDAHPRP | -0.136
81 | RRIRPRPPRLPRPRPRPPGWPRP | 0.484
82 | RRIRYRPPRLPRPRPRPFFLPRP | -0.763
83 | RRIRTRPPRLPRPRPRPPLGPRP | 0.328
84 | RRIRVRPPRLPRPRPRPTDMPRP | -0.234
85 | RRIRGRPPRLPRPRPRPRQLPRP | 0.549
86 | RRIRKRPPRLPRPRPRPFMVPRP | -0.145
87 | RRIRPRPPRLPRPRPRPAEMPRP | 0.189
88 | RRIRVRPPRLPRPRPRPQDTPRP | -0.64
89 | RRIRFRPPRLPRPRPRPFHFPRP | -0.532
90 | RRIRMRPPRLPRPRPRPDPHPRP | 0.0256
91 | RRIRSRPPRLPRPRPRPLTAPRP | -0.0374
92 | RRIRHRPPRLPRPRPRPQQCPRP | -0.0705
93 | RRIRLRPPRLPRPRPRPAMQPRP | 0.0214
94 | RRIRIRPPRLPRPRPRPGAGPRP | 0.29
95 | RRIRERPPRLPRPRPRPHFDPRP | -0.14
96 | RRIRWRPPRLPRPRPRPHTEPRP | -0.0123
97 | RRIRKRPPRLPRPRPRPAIWPRP | 0.463
98 | RRIRERPPRLPRPRPRPYTNPRP | -0.172
99 | RRIRRRPPRLPRPRPRPGDSPRP | 0.269
100 | RRIRFRPPRLPRPRPRPVFWPRP | 0.423

Row | Sequence | shrunken log2 fold change
101 | RRIRFRPPRLPRPRPRPIRSPRP | -0.0101
102 | RRIRMRPPRLPRPRPRPPFYPRP | -0.182
103 | RRIRIRPPRLPRPRPRPSIMPRP | -0.469
104 | RRIRGRPPRLPRPRPRPYWLPRP | -0.0478
105 | RRIRCRPPRLPRPRPRPDDAPRP | -0.0228
106 | RRIRNRPPRLPRPRPRPDEMPRP | -0.00822
107 | RRIRPRPPRLPRPRPRPHQVPRP | 0.341
108 | RRIRVRPPRLPRPRPRPFEVPRP | -0.164
109 | RRIRWRPPRLPRPRPRPWPSPRP | 0.018
110 | RRIRTRPPRLPRPRPRPYRSPRP | 0.0429
111 | RRIRGRPPRLPRPRPRPQTIPRP | 0.28
112 | RRIRQRPPRLPRPRPRPRLHPRP | 0.0368
113 | RRIRRRPPRLPRPRPRPPFHPRP | 0.321
114 | RRIRFRPPRLPRPRPRPEGLPRP | -0.0574
115 | RRIRSRPPRLPRPRPRPQVAPRP | 0.0589
116 | RRIRIRPPRLPRPRPRPSEFPRP | -0.177
117 | RRIRKRPPRLPRPRPRPYIEPRP | -0.127
118 | RRIRGRPPRLPRPRPRPPFTPRP | 0.462
119 | RRIRWRPPRLPRPRPRPTIEPRP | 0.145
120 | RRIRGRPPRLPRPRPRPSHYPRP | -0.0921
121 | RRIRERPPRLPRPRPRPVEIPRP | -0.0716
122 | RRIRLRPPRLPRPRPRPDWYPRP | -0.464
123 | RRIRARPPRLPRPRPRPGNRPRP | 0.0467
124 | RRIRNRPPRLPRPRPRPLILPRP | -0.303
125 | RRIRYRPPRLPRPRPRPVPCPRP | -0.226

Row | Sequence | shrunken log2 fold change
126 | RRIRIRPPRLPRPRPRPQNNPRP | -0.957
127 | RRIRSRPPRLPRPRPRPQQQPRP | -0.0954
128 | RRIRHRPPRLPRPRPRPKHFPRP | 0.451
129 | RRIRNRPPRLPRPRPRPPWKPRP | -0.0649
130 | RRIRRRPPRLPRPRPRPPFIPRP | 0.299
131 | RRIRKRPPRLPRPRPRPFRHPRP | -0.0849
132 | RRIRPRPPRLPRPRPRPSICPRP | -0.718
133 | RRIRKRPPRLPRPRPRPWPMPRP | 0.915
134 | RRIRLRPPRLPRPRPRPVYSPRP | -0.881
135 | RRIRNRPPRLPRPRPRPLCKPRP | -0.146
136 | RRIRIRPPRLPRPRPRPNHKPRP | -0.857
137 | RRIRQRPPRLPRPRPRPHTKPRP | -0.213
138 | RRIRLRPPRLPRPRPRPVRGPRP | 0.682
139 | RRIRDRPPRLPRPRPRPLNPPRP | -0.478
140 | RRIRARPPRLPRPRPRPNNLPRP | -0.561
141 | RRIRMRPPRLPRPRPRPQSCPRP | -0.00838
142 | RRIRCRPPRLPRPRPRPWRLPRP | 0.0337
143 | RRIRTRPPRLPRPRPRPPNAPRP | 0.535
144 | RRIRKRPPRLPRPRPRPYCHPRP | -0.469
145 | RRIRARPPRLPRPRPRPGGKPRP | 0.563
146 | RRIRWRPPRLPRPRPRPKISPRP | 0.177
147 | RRIRHRPPRLPRPRPRPKHAPRP | 0.126
148 | RRIRTRPPRLPRPRPRPEHNPRP | -0.353
149 | RRIRQRPPRLPRPRPRPHKIPRP | 0.00423
150 | RRIRPRPPRLPRPRPRPMERPRP | -0.0425
